Test results as given in paper PMC5638241, “Chlorophyte aspartyl aminopeptidases: Ancient origins, expanded families, new locations, and secondary functions” (PLoS ONE, 2017).
One block for each molecule: values may come before it.

What was measured:
[1] = molecular target: Arabidopsis thaliana aspartyl aminopeptidase 2, mature (without transit peptide), with N-terminal His6 (His6-DAP2) (Arabidopsis thaliana); experiment: native gel or EMSA; series of native polyacrylamide gels (4, 4.5, 5 and 6% acrylamide) of Ni-NTA-purified His6-DAPs; masses from relative mobilities and retardation coefficients (Hedrick and Smith; Bryan), BSA and urease as mass standards
purified protein = substrate: N[C@@H](CC(=O)O)C(=O)Nc1ccc([N+](=O)[O-])cc1; experiment: purified protein; type: biochemical, Arabidopsis thaliana; conditions: 50 mM Tris-HCl pH 8.0, enzyme pre-activated with 0.5 mM MnCl2
[2] = molecular target: the molecule itself; experiment: native gel or EMSA; series of native polyacrylamide gels (4, 4.5, 5 and 6% acrylamide) of Ni-NTA-purified His6-DAPs; masses from relative mobilities and retardation coefficients (Hedrick and Smith; Bryan), BSA and urease as mass standards

stoichiometry N [1]: 12
Molecule: Arabidopsis thaliana aspartyl aminopeptidase 2, mature (without transit peptide), with N-terminal His6 (His6-DAP2) (enzyme)

B1: His6-DAP2 (mature AtDAP2) (Arabidopsis thaliana) (protein)
chain: ASIVGDLLDYLNESWTQFHATAEAKRQLLAAGFDLLSENEDWNLKPGGRYFFTRNMSCLVAFAVGEKYVPGNGFHAIAAHTDSPCLKLKPKSASSKSGYLMVNVQTYGGGLWHTWFDRDLSVAGRAIVRASDGSFVHRLVKVKRPLLRVPTLAIHLDRTVNSDGFKPNLETQLVPLLATKSDESSAESKDKNVSSKDAHHPLLMQILSDDLDCKVEDIVSLELNICDTQPSCLGGANNEFIFSGRLDNLASSFCALRALIDSCESSENLSTEHDIRMIALFDNEEVGSDSCQGAGAPTMFQAMRRIVSSLGNKQVTECTFDRAIRKSFLVSADMAHGVHPNFADKHEENHRPQLHKGLVIKHNANQRYATSGITSFLFKEVAKLHDLPIQEFVVRNDMGCGSTIGPILASGVGIRTVDCGIAQLSMHSVREICGTDDIDIAYRHFKAFYRSFSSVDKKLVVDD
notes: mature form without 63-residue transit peptide, N-terminal His6 fusion (pET28), E. coli BL21(DE3)pLysS, Ni-NTA; no tag removal mentioned
Km (purified protein): 210 µM | kcat/Km (purified protein): 3.47e+07 M⁻¹ s⁻¹

B2: Arabidopsis thaliana aspartyl aminopeptidase 1 with N-terminal His6 (His6-DAP1) (enzyme, UniProt Q9LST0 1-477, looked up)
chain: MDKSSLVSDFLSFLNASPTAFHAVDESKRRLLKAGYEQISERDDWKLEAGKKYFFTRNYSTIVAFAIGHKYVAGNGFHIIGAHTDSPCLKLKPVSKITKGGCLEVGVQTYGGGLWYTWFDRDLTVAGRVILKEEKAGSVSYSHRLVRIEDPIMRIPTLAIHLDRNVNTEGFKPNTQTHLVPVLATAIKAELNKTPAESGEHDEGKKCAETSSKSKHHPLLMEIIANALGCKPEEICDFELQACDTQPSILAGAAKEFIFSGRLDNLCMSFCSLKALIDATSSGSDLEDESGIRMVALFDHEEVGSNSAQGAGSPVMIDAMSHITSCFSSDTKVLKKAIQKSLLVSADMAHALHPNFMDKHEENHQPKMHGGLVIKHNANQRYATNAVTSFVFREIAEKHNLPVQDFVVRNDMGCGSTIGPILASSVGIRTVDVGAPQLSMHSIREMCAADDVKHSYEHFKAFFQEFTHLDAKLTIDV
notes: AtDAP1 (At5g60160), M18 aspartyl aminopeptidase of Arabidopsis thaliana ecotype Columbia; entire coding region of the DAP1 cDNA (nucleotides 86 to 1519 of NM_125409) cloned into pET28; Monomer 54.6 kDa as printed; also called AtDAP1; At5g60160; source: E. coli BL21[DE3]pLys, purified (Ni-NTA, 100-kDa MWCO Centricon); not shown: His6, N-terminal, kept; copies: 12
Km (purified protein): 1250 µM | stoichiometry N [2]: 12
